The target of the test is Bacillus subtilis Rel N-terminal domain region (RelBs^NTD; residues 1 to 373) (B. subtilis). Put plainly: ITC; DarB or DarB variant (200 uM) in the syringe titrated into RelBs^NTD or variant (15 uM) in the cell; 25 °C; 50 mM Hepes pH 7.5, 500 mM KCl, 500 mM NaCl, 10 mM MgCl2, 1 mM TCEP, 0.002% mellitic acid.

Substitutions are numbered along the chain they refer to. Numbers in names are those of the source.

From paper PMC9848473 come the findings set out here.

As usually defined, the Kd is the constant that tells how readily two partners part at equilibrium.

B1: Bacillus subtilis DarB E34R (natural protein)
chain: MISLQSDQLLEATVGQFMIEADKVAHVQVGNNLRHALLVLTKTGYTAIPVLDPSYRLHGLIGTNMIMNSIFGLERIEFEKLDQITVEEVMLTDIPRLHINDPIMKGFGMVINNGFVCVENDEQVFEGIFTRRVVLKELNKHIRSLNK
B1 showed a Kd of 10.6 µM.

B2: Bacillus subtilis DarB E74G/R75G (natural protein)
chain: B1 chain with R34E, E74G, R75G
In the case of B2, the Kd was determined as 8.9 µM.
